Test results: paper PMC7170535

What was measured:
complement C3 (human) [1] = assay: SPR; ~2,000 RU C3 immobilised on a CM5 chip; rHC1 as analyte; HEPES-buffered saline pH 7.5, 0.05% Tween 20, 2 mM MnCl2
complement C3 (human) [2] = assay: SPR; ~2,000 RU C3 immobilised on a CM5 chip by amide coupling; rHC1 or IαI as analyte; HEPES-buffered saline pH 7.5, 0.05% Tween 20, 2 mM Mg2+, 2 mM Mn2+; multicycle kinetics, 1:1 Langmuir
complement C3 (human) [3] = target: complement C3 (human)

Kd (complement C3 (human) [1]): 473 nM
Kd (complement C3 (human) [2]): 364 nM
fluid phase alternative pathway C3 convertase (C3bBb) assay, proteolytic release of C3a quantified by SDS-PAGE; rHC1 at 0 to 27 μM (complement C3 (human) [3]): 980 nM
B1: recombinant inter-α-inhibitor heavy chain 1 (rHC1), wild type (natural protein)
chain: SKSSEKRQAVDTAVDGVFIRSLKVNCKVTSRFAHYVVTSQVVNTANEAREVAFDLEIPKTAFISDFAVTADGNAFIGDIKDKVTAWKQYRKAAISGENAGLVRASGRTMEQFTIHLTVNPQSKVTFQLTYEEVLKRNHMQYEIVIKVKPKQLVHHFEIDVDIFEPQGISKLDAQASFLPKELAAQTIKKSFSGKKGHVLFRPTVSQQQSCPTCSTSLLNGHFKVTYDVSRDKICDLLVANNHFAHFFAPQNLTNMNKNVVFVIDISGSMRGQKVKQTKEALLKILGDMQPGDYFDLVLFGTRVQSWKGSLVQASEANLQAAQDFVRGFSLDEATNLNGGLLRGIEILNQVQESLPELSNHASILIMLTDGDPTEGVTDRSQILKNVRNAIRGRFPLYNLGFGHNVDFNFLEVMSMENNGRAQRIYEDHDATQQLQGFYSQVAKPLLVDVDLQYPQDAVLALTQNHHKQYYEGSEIVVAGRIADNKQSSFKADVQAHGEGQEFSITCLVDEEEMKKLLRERGHMLENHVERLWAYLTIQELLAKRMKVDREERANLSSQALQMSLDYGFVTPLTSMSIRGMADQDGLKPTIDKPSEDSPPLEMLGPRRTFVLSALQPSPTHSSSNTQRLPDRVTGVDTD
